In US20230203156A1 (published 2023):
Changes are numbered by the printed parent chain.

T1: cynomolgus CD47 (cynomolgus, UniProt A0A5F8AK49 19-323)
T1 chain: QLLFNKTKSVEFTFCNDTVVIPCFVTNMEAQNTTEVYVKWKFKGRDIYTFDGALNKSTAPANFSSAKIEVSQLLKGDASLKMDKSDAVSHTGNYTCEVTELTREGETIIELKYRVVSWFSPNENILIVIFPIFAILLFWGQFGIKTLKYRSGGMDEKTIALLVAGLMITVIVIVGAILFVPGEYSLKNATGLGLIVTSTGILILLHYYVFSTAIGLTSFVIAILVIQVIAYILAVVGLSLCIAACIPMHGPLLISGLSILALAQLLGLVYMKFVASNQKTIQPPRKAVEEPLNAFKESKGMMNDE

B1: B1.261.huH2(VH3)-huL1 (antibody, V domains shown)
VH: EVQLVESGGGLIQPGGSLRLSCAVSGFSLTSYGVHWVRQPPGKGLEWLVVIWSDGSTTYNSALKSRLTISKDNSKNTVYLQMNSLRAEDTAVYYCARHGRWLLQRGGAMDYWGQGTMVTVSS
VL: DVQMTQSPSSLSASVGDRVTITCRASQNVGSYIAWYQQKPGKSPKALIYSASYRSSGVPSRFSGSGAGTDFTLTISSLQPEDFATYFCQQYNSYPLTFGGGTKLEIK
B2: B1.261 (antibody, V domains shown)
VH: QVQLKESGPGLVAPSQSLSITCTVSGFSLTSYGVHWVRQPPGKGLEWLVVIWSDGSTTYNSALKSRLSISKDNSKSQVFLKMNSLQIDDTAMYYCARHGRWLLQRGGAMDYWGQGTSVTVSS
VL: DVVMTQAPKFMSTSVGDRVSVTCRASQNVGSYIAWYQQKLGQSPKALIYSASYRCSGVPDRFTGSGAGTDFTLTIRNVQSEDLAEYFCQQYNSYPLTFGGGTKLEIK
B3: 15D3DD/KT14KK/VL6.CDR3mod (antibody)
chain 1: EVKVVESGGVLVRPGGSLKLSCAASGFTFSRYTMSWVRQTPEKRLEWVATISSGGGNTYYPDSVKGRFTVSRDNAMSSLYLQMSSLRSEDTALYYCARYGAGDAWFAYWGQGTLVTVSS
chain 2: QVQLVQSGAEVKKPGASVKVSCKASGYTFTNYNMHWVRQAPGQRLEWMGTIYPGNDDTSYNQKFKDRVTITADTSASTAYMELSSLRSEDTAVYYCARGGYRAMDYWGQGTLVTVSS
chain 3: DVLMTQTPLSLPVSLGDQASISCRSSQSLVHSNGNTYLEWYLQKPGQSPKLLIYKVSNRFSGVPDRFSGSGSGTDFTLKISRVEAEDLGVYYCFQGSHFPRTFGGGTKLEIKRTVAAPSVFIF
B4: 15D3DD/KT14KK/B1.27 (antibody)
chain 1: B3 chain 1
chain 2: B3 chain 2
chain 3: DVLLTQTPLSLPVSLGDQASISCRSSQNIVHSTGNTYLDWYLQKPGQSPKLLIYKVSNRFSGVPDRFSGSGSGTDFTLKISRVEAEDLGVYFCFQGSHIPRTFGGGTKLEIK
B5: 15D3DD KT14KK B1.89v1 LC (bispecific antibody)
heavy 1: not shown
heavy 2: not shown
VL: B4 chain 3 with L4M, N28T, T33N, D39E, N58K, F92Y, G96A, I99F
B6: 15D3DD/KT14KK/225v1 (antibody)
chain 1: B3 chain 1
chain 2: B3 chain 2
chain 3: B4 chain 3 with L3V, L4M, S25F, N28S, T33N, D39E, S61F, F92Y, G96A, I99F
B7: KT14.5F9hu scFv-B1.261.hu1 (bispecific antibody)
scFv: not shown
heavy: EVQLQESGPGLVKPSETLSLTCTVSGFSLTSYGVHWVRQPPGKGLEWLVVIWSDGSTTYNSALKSRLTISKDNSKNQVSLKLSSVTAADTAVYYCARHGRWLLQRGGAMDYWGQGTMVTVSSASTKGPSVFPLAPSSKSTSGGTAALGCLVKDYFPEPVTVSWNSGALTSGVHTFPAVLQSSGLYSLSSVVTVPSSSLGTQTYICNVNHKPSNTKVDKRVEPKSCDKTHTCPPCPAPELLGGPSVFLFPPKPKDTLMISRTPEVTCVVVDVSHEDPEVKFNWYVDGVEVHNAKTKPREEQYNSTYRVVSVLTVLHQDWLNGKEYKCKVSNKALPAPIEKTISKAKGQPREPQVCTLPPSREEMTKNQVSLSCAVKGFYPSDIAVEWESNGQPENNYKTTPPVLDSDGSFFLVSKLTVDKSRWQQGNVFSCSVMHEALHNHYTQKSLSLSPGK
light: DVQMTQSPSSLSASVGDRVTITCRASQNVGSYIAWYQQKPGKSPKALIYSASYRSSGVPSRFSGSGAGTDFTLTISSLQPEDFATYFCQQYNSYPLTFGGGTKLEIKRTVAAPSVFIFPPSDEQLKSGTASVVCLLNNFYPREAKVQWKVDNALQSGNSQESVTEQDSKDSTYSLSSTLTLSKADYEKHKVYACEVTHQGLSSPVTKSFNRGEC
B8: KT14.B6H12hu scFv-B1.261.hu1 (bispecific antibody)
scFv: not shown
heavy: B7 heavy
light: B7 light
B9: KT14.5F9hu scFv-B1.28.hu13 (bispecific antibody)
scFv: not shown
heavy: EVQLVESGGGLVKPGGSLRLSCAASGFTFGLYTMSWVRQAPGKGLEWVATISSGGSNTYYPDSVKGRFTISRDNAKNSLYLQMNSLRAEDTAVYYCARYYRYDAWFAYWGQGTLVTVSSASTKGPSVFPLAPSSKSTSGGTAALGCLVKDYFPEPVTVSWNSGALTSGVHTFPAVLQSSGLYSLSSVVTVPSSSLGTQTYICNVNHKPSNTKVDKRVEPKSCDKTHTCPPCPAPELLGGPSVFLFPPKPKDTLMISRTPEVTCVVVDVSHEDPEVKFNWYVDGVEVHNAKTKPREEQYNSTYRVVSVLTVLHQDWLNGKEYKCKVSNKALPAPIEKTISKAKGQPREPQVCTLPPSREEMTKNQVSLSCAVKGFYPSDIAVEWESNGQPENNYKTTPPVLDSDGSFFLVSKLTVDKSRWQQGNVFSCSVMHEALHNHYTQKSLSLSPGK
light: EVVLTQSPATLSLSPGERATLSCRSSQNIVHSTGNTYLDWYQQKPGQSPRLLIYKVSNRFSGVPARFSGSGSGTDFTLTISSLEPEDFAVYYCFQGSHIPRTFGGGTKLEIKRTVAAPSVFIFPPSDEQLKSGTASVVCLLNNFYPREAKVQWKVDNALQSGNSQESVTEQDSKDSTYSLSSTLTLSKADYEKHKVYACEVTHQGLSSPVTKSFNRGEC
B10: KT14.B6H12hu scFv-B1.28.hu13 (bispecific antibody)
scFv: not shown
heavy: B9 heavy
light: B9 light
B11: B1.201 (antibody, V domains shown)
VH: EVQLVESGGALMKPGGSLKFSCAASGFTFTNYAMSWVRQTPEKRLEWVATISSGGSNTYYSDSVKGRFTISRDNAKTTLYLQMSGLRSEDTALYYCAKFSNFGRFASWGQGTLVTVSA
VL: DVLMTQTPLSLPVSLGDQASISCRFSQSIVHSSGNTYLEWYLQKPGQSPRLLIYKVSNRFFGVPDRISGSGSGTDFTLRISRVEAEDLGVYYCFQGSHVPYTFGGGTKLEIK
B12: B1.188 (antibody, V domains shown)
VH: EVMLVESGGALVKPGGSLKLSCAASGFTFSNYAMSWVRQTPEKRLEWVATISSGGSYTYYPDSVKGRFTISRDNARNTLYLQMSSLRSEDTAMYYCARGYGNFAWFAYWGQGTLVTVSA
VL: B4 chain 3 with V2I, L3Q, L4M, T7S, N28S, D39E, F92Y, I99V, R101F, G105S
B13: B1.30 (antibody, V domains shown)
VH: EVMLVESGGGLVKPGGSLKLSCAASGFTFSSYTMSWVRQTPEKRLEWVATISSGGGNTYYPDSVKGRFTISRDNAKNNLYLQMSSLRSEDTALYYCARYYRYDAWFAYWGQGTLVTVSA
VL: B4 chain 3 with L4M, N28S, D39E, A85T, F92Y, I99V
B14: B1.39 (antibody, V domains shown)
VH: EVMLVESGGGLVKPGGSLKLSCAASGFTFSSYTMSWVRQTPEKRLEWVATVSSGGGNTYYPDSVKGRFTISRDNAKNNLYLQMSSLRSEDTALYYCARYGNYGWFTYWGQGTLVTVSA
VL: B4 chain 3 with L4M, N28S, V30L, T33N, D39E, G69A, V90I, F92Y, I99V
B15: B1.198 (antibody, V domains shown)
VH: B11 VH with M12V, F20L, T30S, N57Y, S61P, T77N, G85S, F99Y, F102Y, S107Y
VL: B11 VL with L3V, F25S, H31D, S33N, R50K, I67F, R79K
B16: B1.223 (antibody, V domains shown)
VH: B11 VH with Q3K, M12V, F20L, T30S, N57Y, S61P, F102Y, A118S
VL: B11 VL with V2I, L3Q, T5I, T7S, F25S, I111L
B17: B1.178 (antibody, V domains shown)
VH: EAQLVESGGALVKPGGSLKLSCSASGFTFSNYAMSWVRQTPEKRLEWVATISSGGTNTYYPGSVKGRFTIARDNAKNTLYLLMSSLRSEDTALYFCARYSNLAWFASWGQGTLVTVSA
VL: B11 VL with L3V, F25S, S33N, R50K, L51F, Y54S, F61S, I67F, R79K, V90I
B18: B1.27 (antibody, V domains shown)
VH: B14 VH with M3K, L86P, A118S
VL: B4 chain 3 with L3V, L4M
B19: B1.85 (antibody, V domains shown)
VH: B12 VH with M3Q, A33G, M34V, G54S, S63I, K65R, R76K, M93F
VL: B4 chain 3 with V2I, L3Q, L4M, T7S, N28S, D39E, S81N, F92Y, I99V, R101Y
B20: B1.99 (antibody, V domains shown)
VH: B12 VH with M3Q, K43R, R76K, R87I, M93L, A97T, Q111H
VL: B4 chain 3 with L3V, L4M, A19V, N28S, T33Y, N35S, D39E, R101Y, I111L
B21: B1.207 (antibody, V domains shown)
VH: B11 VH with E1G, M12V, F20L, T30S, N57Y, S61P, F99Y, F102Y, A118T
VL: B11 VL with F25S

target: cynomolgus MDR1 (Macaca fascicularis); assay: FACS binding, 293T-cB1 cells
Sequence (chain, as listed by the source): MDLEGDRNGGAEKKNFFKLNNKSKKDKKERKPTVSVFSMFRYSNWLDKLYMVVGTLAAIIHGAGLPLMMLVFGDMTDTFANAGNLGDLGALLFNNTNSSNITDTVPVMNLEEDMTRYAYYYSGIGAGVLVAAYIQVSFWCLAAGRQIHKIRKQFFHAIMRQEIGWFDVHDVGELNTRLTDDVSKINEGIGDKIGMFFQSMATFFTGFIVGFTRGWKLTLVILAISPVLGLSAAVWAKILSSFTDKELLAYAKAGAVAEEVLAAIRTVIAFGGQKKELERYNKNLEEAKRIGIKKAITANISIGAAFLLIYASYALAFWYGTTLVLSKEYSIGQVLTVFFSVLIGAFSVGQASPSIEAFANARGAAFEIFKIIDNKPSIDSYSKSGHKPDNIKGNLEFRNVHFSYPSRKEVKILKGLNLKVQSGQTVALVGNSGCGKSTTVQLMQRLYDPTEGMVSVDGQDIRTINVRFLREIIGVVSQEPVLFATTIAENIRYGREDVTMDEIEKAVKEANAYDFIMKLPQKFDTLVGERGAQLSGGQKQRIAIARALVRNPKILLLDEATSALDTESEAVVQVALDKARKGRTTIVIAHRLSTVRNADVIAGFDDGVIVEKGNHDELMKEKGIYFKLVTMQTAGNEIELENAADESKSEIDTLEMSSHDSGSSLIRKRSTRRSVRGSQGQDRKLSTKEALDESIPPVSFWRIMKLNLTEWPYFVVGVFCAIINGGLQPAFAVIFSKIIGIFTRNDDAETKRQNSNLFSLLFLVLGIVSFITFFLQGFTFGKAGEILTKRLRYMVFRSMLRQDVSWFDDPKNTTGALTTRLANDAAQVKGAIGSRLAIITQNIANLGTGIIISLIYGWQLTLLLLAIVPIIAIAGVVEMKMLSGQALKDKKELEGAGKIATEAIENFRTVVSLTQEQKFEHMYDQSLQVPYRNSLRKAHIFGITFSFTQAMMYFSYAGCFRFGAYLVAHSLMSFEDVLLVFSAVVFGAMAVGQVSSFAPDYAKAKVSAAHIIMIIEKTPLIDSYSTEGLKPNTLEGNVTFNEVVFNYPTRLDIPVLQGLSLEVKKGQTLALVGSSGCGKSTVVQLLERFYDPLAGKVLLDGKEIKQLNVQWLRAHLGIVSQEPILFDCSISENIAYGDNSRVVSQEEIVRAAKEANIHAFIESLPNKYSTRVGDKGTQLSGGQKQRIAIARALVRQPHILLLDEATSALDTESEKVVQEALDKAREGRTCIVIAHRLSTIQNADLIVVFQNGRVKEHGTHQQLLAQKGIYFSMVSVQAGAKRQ

Binder | Kd [nM]
B1 | 114
B2 | 371

target: T2, human MDR1 (multidrug resistance protein 1) (UniProt P08183 1-1280); assay: FACS binding, 293T-hB1 cells

Binder | Kd [nM]
B1 | 50
B2 | 188

Target: T1, cynomolgus CD47
Assay: FACS binding, C6-cKT14 cells

Binder | EC50 [nM]
B3 | 44
B4 | 36
B5 | 21
B6 | 37

target: T3, human CD47 (human, UniProt Q08722 19-323); assay: cell binding (flow cytometry, C6 cells)

Binder | EC50 [nM]
B7 | 2.7
B8 | 26

target: T3, human CD47; assay: FACS binding, C6 cells expressing human CD47

Binder | EC50 [nM]
B9 | 1.4
B10 | 1.5

target: T2, human MDR1 (multidrug resistance …); assay: FACS binding, 293T cells expressing human MDR1

Binder | EC50 [nM]
B11 | 8
B12 | 14.1
B13 | 8.5
B14 | 14.2
B15 | 14.8
B16 | 4.6
B17 | 16.6
B18 | 34
B19 | 9.2
B20 | 88.2
B21 | 4.3
